This is an account of results in the NTF2 design screens of Basanta et al. (2020).

A short description of this data set: protease stability score; higher = more stable; yeast display proteolysis, trypsin and chymotrypsin.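 Further: log10 excess protease needed over predicted unfolded state with 0 meaning unfolded.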
In the case of “DEDAQKRAEEMMHALQNGDEKQIQTLFDKDAKVNVGDKEYHGKEQLAHDLKRRHDKIRVDYKDVHIRAHGDKVSLTFRVRVKINGVPADNSFQFTLKFRNGHVQSMSQQFDPKYEQDQRN”, the protease stability score is -0.033.
As for “DEDAQKTVRKFLENITTGNPENAEKLLDPNVHIHYGDKRVSGRDQFHREAKQKLHDMRLSIDIKEVQVQGNRIDVDVRFSVNHNGRPYTITAHLSIEMSNGHIEHMELRIDESDKRRQKR”, the figure is -0.237; as for “DEDAQRQVEELLKAEHEGDPKKFQELADPNVNAIYGDKRVHGRETLADQLAERVREMRVHYDSIDLRVRGNKVNVHINAKFKYNGVPIEISMTVVFVFHNGRLQRREVSIPEEVQTELTR”, 0.129.
To “DEDAQTQVEKMLKNMQRGDNQEVNKMFDKNVEFRVGDRDIHGREEYARQVSREHKESRVEFRHIHARVKGDHVRIRVDVVRQVNGKPQRMTVEFEVQAHNGKIKRFQVEFDPDEERRVQK” belongs 0.196.
To “DEDARKLAEELLKAQETGDPKTLKRLVDPNVKVDVGDKTFHGMDEINEEVTRTKRRQRVKIDRVSIHVRGDSVVIHVTEKNEKDGQPSSRQYVQEMRVTNGHVVEMKQNKSR” belongs -0.468; to “DEDARKQAQRWITNLNNGNEKEVSKQFDPNARMDVGNRDVHGTEQLLQKLRTRLKQARQSIELRDIDRQGDNLQLDVRMEFVHNGQPDDVRFTVQMNYHNGKIKRANWRIPEEDQKKLER”, 0.165; to “DEDARRKVEEFMDLMRNNNPEELAKLADPNATVHYGDKVVHGREQAMEWWKKFLTELRVDIKSVSIRVSGNKIDVEVDMIVQVNGRPVTLNWRFSFNFNNGKIEQIHVHISEEQQERIHS”, 0.68.
Regarding “DEDARRRVHEFFEAIENNDREKLKELADPNVQANYGDKQVRGREQLAEWVDKLHKELRVHFRLKSLDNRGDKIEIRMRVILDINGRPQTQDVTMEMRFHNGRIKHVQVHVDERQLKQKKK”, the protease stability score worked out at 0.942.
On to “DEDARSNFQELLKALQTGDERLFEKNVDPNVTFRYGDKTLTGRHHIMEQLRRDKENSRQDFDVKEWHFHGNRIDVKAQLRFEKNGKPDTVDVNLVAIAHNGRIQEIQIDVQK”, for which the protease stability score was -0.278.
To “DEDASKELQRLARENDFKRIAELADENASAQIGDNVWHGREKILTNLKRMQDQVDHQRIHSIRTHGNKLRVTVRMVVNGRDFTFRFVIEVENGRVVSIDIKATSEKDKKKMNEVIG” belongs -0.158.
Sequence “DEDASKQVEDFERALKTGDENRLHELMDKDARVEVGDKRYHGRKQIARQQVQHYEEMRVDLHVQDIDVQGDKIKVDVTRQIEVNGKPISNRIIIYVTIHNGKIQRMDVDVPDEDMDKIEK” yielded a protease stability score of 0.769.
To “DEDASRHVRDMIRALQTGDRDKVARYIDPNATMQVGDKRYHGNERIKEQVKRTKDTMRYHMEIKDVHVEGDHIKVDFTFSNNKNGTPTSDRAQIDIRMTNGHATSIVLHNNK” belongs -0.001; to “DEDASRRMIEMVENLQTGNEEEFKKYVDPNVRIEYGDKRVSGRDQATKWWRSEFTEIRFSMRVQSYSVDGNKVDITVRATFDHNGKPEDKKYKLDIQLHNGHIKKLEITDDS”, 1.31.
As for “DEDATDNVRQWFEARNQNDENRLMQLVDPNAKIQVGDKFVHGKEDLEKQVKREKDQIHLHMKDMKFTDTGDTVKVRIDYRDEHNGRPKEDRMVAYATVHNGRIENLEVDSDR”, the figure is -0.179.
As for “DEDAVKAYERLLTAWNHGDPDQAKHQVDPNVRVQVGDKQIHGREELARQIERRRREANIHNQLEDYRDNGEEIQLHVEVTEDHNGNPDTKTYTAYAQFTNGKMQELTINDHG”, the figure is -0.219.
Take “DEDAVKLAQEVWKAMHTGDEDKFVKLVDPNARVKIGDKDIHGKDDIKKQLHNRNREIRVRLKHIEIDQNGDQARIHMRFQMTHDGQPRDQSATATMRAQGDKLKSISVTNHG”: the protease stability score was -0.206.
To “DEDAVKLFHNVQHVIEQGDKDKAVKNFDPNASAKVGDKEVHGMEDWVRTLVKEASQLRIDLKWDDYRVHGDKINMNIELNKEHNGHPSTTRMHIDAHVHNGRVKFVAYNRRP” belongs 0.066; to “DEDAVKSASNAAQHGDFVRMAEEMRDNPEARYGDKDVRGREEVIRVVRILMEQVDSVKVKRVRVHGEKVTADLKFRVNGREFHANAVVVMDNGRFVKLVLHFTDSDFKHELHKRLE”, 1.17; to “DEDAVKVAEKFVEVEETGSEDDFKRLADKDAKIRVGENHVHGRESLLDELRKRRKQINIVIHHVRAEDRGDKVDVEIEAVDERNGKPNQYNVKFKVKMHNGRVKQIDRDRDR”, 0.168.
As for “DEDAVNRYEEFVENLKSNNEHKLSEYLDPNVRLVIGDKTLHGKDNFRRRVRHMTKHMRLQLNYKDLKVQGEEIHVHADVRQTHDGKPQNTHFSASMRVNGDKAKEITIKDDG”, the figure is 0.207; as for “DEDAVRKAIELFKQQETGNPEEVKKLADPNARMVVGDKTFTGMDTINEHLRKLRKEARIRNDIKRYEVNGDKATIEFRQERDHNGRPDTHLVKITIKVTNGRVKVIEIQDKS”, 0.175; as for “DEDAVRKAKQWVKALRDGDEDELREQVDPNARINVGDKTFHGMDEFVKDVLKTHSEQRVNFDIKSVNASNGRVDMKMDATFDINGEPKTFSLVLTVDFHNGRAKQLEVKFDPKVKEDLTK”, 0.769.
For “DEDAVRLAHKFQDVLNKGDPDKAMRLADPNARVQIGDTEIRGREQLSHHVNEMSNSIRFDLKHVDAQTRGDHVDVRVDQINEVDGRPTRNTDKMTIQIKNGKIVNVNVRVDEDRKQQERD”, the protease stability score was -0.632.
To “DEDAVRNASTMVEAERRGDENTIQKMMDKHATVKYGDTEVHGREDAARQIRKTHREIRIQVDHYTVEAHNGRVRVEIRVVVNVNGTPYEYHYDYYAEVHNGKFKHIEINVDPDLEDKLKK” belongs -0.16; to “DEDAVRRVKDMIRNLKSGNPDDAARYADPNARFDIGDWHIDGRKQLVKKLRDITRHMRYKFEMRSVDVTGNKLKFKATAHVSVNGRPITYHMTASIIVHNGHVTHVDQQLPEELLKRIEQ”, 0.785; to “DEDAVRVMETYMKIYETGNPEELNRLVDPNVKFNIGDQRIKGREHARKFWRKILQHSRVELRRLDVHTRPNRVEARAEVVVNHNGKPKNFQFTFSAHLHNGRIKEVTIKHSK”, 1.34.
To “DEDAYRKLDTFKKVEEKGDTDRLRKLADPNVEIQVGDRQIRGMHHFAKDVHDKKRHIDIDVHIDEYDVDGNKIQIHAHNKQHVNGKPFNFTVVMWVRIHNGSIKKMKYRIDPDQLRKIRR” belongs 0.227; to “DEDDANQVERDLRENDWDQLVRNFDEDARIQIGDYTIHGREDYKRWLEEVEKQVDKVEIKQVDIHGNNIVVDYRQQVNGQHVRAIMVITMDNGKIKEMHVDVRSEDAKRAYERIFR”, 0.525; to “DEDDANRVAQEILRALIEGDEKKVADLVDEDARISIGDHKFRGREQIREAVREFTEEVDHVKLESITADNGHAEATAILDINGKNQRVTFHVEVHNGRAKEVSMTSG”, 1.05.
As to “DEDDARKVRKLAKTNDWDELVHRFRDDVRFKVGNQRYSGRENAQTVAQELRKKVDHIRITSLHSTPGHVVLHMTMVVNGRKITVVIFIRMDNGRAVSFSLRVRDEEVKKHITQAFS”, the protease stability score was found to be 0.141.
Consider “DEDDERQMEEVVETGDPDRMAENADPNVRVDVGDHEVHGRERAQKMWQQEKKQVDHLEVKEVHTENGRINADVVVVVNGRSLQVTVVASMHNGKIEYYSIQFTSEKQKKQWHDANG”, for which the protease stability score was -0.048.
In the case of “DEDDKQEFAKSYNEVWKTGNEENAKRLFDENARMRVGDKEFHGHESIAHFLAEQVKRIDHIEFKQVDVQGEDMVFVFHFTVDGRKVHMTVKLRIHNGRIKDATINPQDIKKMEK”, the protease stability score was 0.603.
As for “DEDDKQRHAEKYAKLWQEGNEDELQKQMDPNAKVVVGEKRLKGREQIKKWLEEWRKHADEVQVISVSVEGERLVIRFRANINGKTYHDTQTMIYDNGEIQDVRFDPKWLHDLKR”, the figure is 0.625.
